Laboratory results published in the DeepSol protein solubility set.

Assay: soluble on expression in E. coli; label from the status in PepcDB or PDB records

Sequence | soluble on expression in E. coli
MGSDKIHHHHHHMKQLVELERSSLGPQEAPVRLALSPDAGSPRDPQWQGPSGGFAINGKFASQRITGVQRVGYELAVAFQHLFPHGTDLPLLVPPNARTDVVFPNAKVIGRRLKGSLWEQFSLPFATGRRTLLSLCNMGPLFVRRQVVMVHDVAIYDLPQNYSWKYRLWYRVALSLLKRNVRHIVTVSEFSKKRIVERLGIDASRISVVLNGVDHFEKISPDTAILSRLNLQKDGYVLAVGNLSVGKNLPRILTAVERLNDSHDWKFVVVGGCDLRVFNSGAKVGFDLSKNIVPAGFVSDGELRALYENAACFLFPSLYEGFGLPPLEAMSCGCPVIVSREASLPEVCGDAALYCDAYSVDDIVDKVTQMMADPAARETWRQRGREHARGFRWERSARQLLGILERELAGEVAPPVHAQSAQSDQSAPSRV | not soluble
MQITTVNVNGIRAAVKQRSDANRGMLPWLEQCGSDVVLLQEVRASEKDSLTALAPALDAGWHYVGAPAAAKGRAGVGILSRQPLRDVQVGLEGFVDSGRYIQATLSDPDTGHDVVVASLYLPSGSADTDKQDEKYRFLDVFGPFLEQAAQDNPHMVVGGDWNICHRMQDLKNWKTNRKKSGFLPDERAFMDSVFGVFPDSESQVSDAGQWAGAVDYTSQQRRTPANDPKWFDVARRLAPEDAAYTWWTYRGQAFDTNAGWRIDYQAATSAMLERATRCWVDKAAAYDLRWSDHSPLTVVYS | soluble
MGSDKIHHHHHHMLMELTTTSHALKEWAVAVNALESGKTIMLLRKGGIHERNGNFQVAHKQILLYPTYEHQQAFMLKPEYANRVYPVTSGWHPETVRIGSWAEITDILPISDEFLVNALLPFHIWNEHFISDRLKWKPRQPLYILLLRTYKLTQDQEIPYHPKYGGCKSWIDLDQSINLQETTPALSDFAYTQLVQTIRGIVGDKMARKIDMLNYNSTFS | not soluble
MGQMFGVACIDEQSGIVGQAWNNNSVRYISIDEDAVITIQSGPVVGKVAVSNDKTLAYGATINGANTVYVYKKSQAWVPSRLSDISSGTDVWAVALNGDNQWLYYVTANGRLGRIEVDNPTHNEILFEHNDFSGGPFAYIAYSAFEDCFYVTTDKNKILKVWVKEDGTHAYEQINQNNTGTTDGFLADEAKFQYLRGLTIDEDGNIFVCQGDNSHVIRKIAYDENMEKRYVTTVLGTSTVHGTDDGSPDIALFNGPQDISYDGNGGYWIAMRYEPALRKYSIELEHHHHHH | not soluble
MHTFILLLTVLCAGAYTQFTANGQAAILNVHNTLRSRIAKGTYVARGTVKHAASDMLKMKWLRSLATSSQIYANRCPTGHSNMIGVGENLYWYWTSGTITNIDQFGAMASAAWEKEFQDYGWSSNTLTMSLFNSGVGHATQMAWAKTNLIGCGVKNCGMDTNGMNKVAVVCHYQPQGNYLNQNIYTSGTTCSKCPAGTSCEAATGLCV | not soluble
MAHHHHHHMSSSSSALDVPLVEVICSYPTREGLCAECPALLLLVYEHVVAELQAGRRAVDVFRGTSRQDHLSELLAVRSLSELFERLYPLSQSCILDESTASSQFWRQARVTLEAAWAAPHDAKGRALLTQVRGQPRFHFCGPRDVETPGEGYPLHPVSLERALATSKRFLRTAMTCALDGSTDALAGRQPELRAVLQLAHLVPLTPSTGAPPRKEVTPEGLSFCMVSLQQRWWILVNAALERVLLLTRAAVNGNGNTSGSSGVTKPLLWQLLAVLSVLDTTQYVFAFPERQQDLAAHHLLARLSEVGLVYPLLSNDRKCFVLSPDFLHAIHWHASAPLSLTFNHHLLRSASGVSGAGIGDLRREDTDTIITETNFRLFAYTNDADLLNILNQFAELEEIVNGNLHCYRVTRASFAAAMRKGITAAQVLRFLSLRAHPSMLRRHGEREENGDTASPSSAGGASSSFTFSASPRRGAVAGTCGSTTSIDAVSTLVVPQSFCDQMRMWESECRRVVFEHHVVLLRNMSTQQQKAVTAYLTDAGEVDAVVHAERGYMVIREEVFERLVAPLLG | not soluble
MAATVDTMSEEVKRLIALYELTPHPASGGWFRETYRSDVQVEAEGFDGKRSVLTMIYYLMQAGQPDPFHRVKSDETFVHNLGGSMKIHMIHPDGSYSCSILGNPLEHPEARHQVVVPRRVWFAQEVDGYCLASVLVAPGFDFKDFSLGKREELIKEYPQHRDVIMRCTSSDP | soluble
MSKIFEDNSLTIGHTPLVRLNRIGNGRILAKVESRNPSFSVKCRIGANMIWDAEKRGVLKPGVELVEPTSGNTGIALAYVAAARGYKLTLTMPETMSIERRKLLKALGANLVLTEGAKGMKGAIQKAEEIVASNPEKYLLLQQFSNPANPEIHEKTTGPEIWEDTDGQVDVFIAGVGTGGTLTGVSRYIKGTKGKTDLISVAVEPTDSPVIAQALAGEEIKPGPHKIQGIGAGFIPANLDLKLVDKVIGITNEEAISTARRLMEEEGILAGISSGAAVAAALKLQEDESFTNKNIVVILPSSGERYLSTALFADLFTEKELQQ | soluble
MGSFMTDIAVIINNRAKNAHRMEDYLSELRAHDIDYQLYKADPQQLEKNIQHCCSKYPLLLIGGGDGTVRSAAQWCSNTSVILGVLPLGTMNHFSKELNLPSTTEELIAAIVEKTTTTIDVAEVNGH | not soluble
MARKTKPLTDTEIKAAKPKDADYQLYDGDGLTLLIKSSGSKLWQFRYYRPLTKQRTKQSFGAYPAVSLSDARKLRAESKVLLAKDIDPQEHQKEQVRNSQEAKTNTFLLVAERWWNVKKTSVTEDYADDIWRSLERDIFPAIGDISITEIKAHTLVKAVQPVQARGALETVRRLCQRINEVMIYAQNTGLIDAVPSVNIGKAFEKPQKKNMPSIRPDQLPQLMHTMRTASISMSTRCLFMWQLLTITRPAEAAEARWDEIDFNASEWKIPAARMKMNRDHTVPLSDGALAILEMMKPLSGGREFIFPSRIKPNQPMNSQTVNAALKRAGLGGVLVSHGLRSIASTALNEEGFPPDVIEAALAHVDKNEVRRAYNRSDYLEQRRPMMQWWADLVKAADSGSIVLTHLSKIRLVG | soluble
MGTRDDEYDYLFKVVLIGDSGVGKSNLLSRFTRNEFNLESKSTIGVEFATRSIQVDGKTIKAQIWDTAGQERYRAITSAYYRGAVGALLVYDIAKHLTYENVERWLKELRDHADSNIVIMLVGNKSDLRHLRAVPTDEARAFAEKNGLSFIETSALDSTNVEAAFQTILTEIYRIVSQKQMSDRRENDMSPSNNVVPIHVPPTTENKPKVQCCQNI | soluble
MKISMEGSSVINLEQLSLYQDSLGYLGQQMNFPEKMTFHPKIFEETISKSHPGYEDLLAYREVMMNYTLSEIKAIYTDTFDFSKKHPLYMTFNKFDTQKERGQMLAKLKVLYEMFGLKMVDNELSDFLPLMLQFLQVADFKNDSRAQENLQLVIMIIEDGTYEMANTLAENNNPYAYVVSALRKTLKACIVPLKEVENHA | not soluble
MEEKKEDKFILLKNLYEEWKDCTRCDLHKSRTRVVPGDGNPYSLLVFVGEAPGEEEDRQGKPFVGRAGQLLNRLIEEVLGMKREDVYITNVCKCRPPQNRKPTPIEMRACFPYLKKEIEIIQPKVICCLGATAGEGILGKSLRITKVRGQVFPYPYNPRIKVFLTYHPAYVLRNPKEETTIIKDFEKLKELLTQE | soluble
MGSDKIHHHHHHMVYPVKDIQSVRDLALLAIRNKVSLEQQVETLGFESETYDYSSLLADLKVLPPLDHPDPTHCLISGTGLTHLGSASARDKMHQQNLSNDSSVTDTMRIFQWGLQKGRPAEGQIGAQPEWFYKGDGSIVVRPGAELPLPPFAEDGGEEPEIAGLYVIGEDLKPYRIGFALGNEYSDHVMERRNYLYLAHSKLRFCSFGPALRTGELPKHLVGTSRLRRDGQIIWEKEFLSGEDNMCHSLANLEYHHFKYQQFLKAGDVHIHYFGTATLSFADGIQAQVNDEFEIEMKEFGHPLKNKLAHMQPELPIGSVITL | not soluble
MGSDKIHHHHHHMMSQEQNDLITRVGPGTPCGKLMRAYWQPAALVDELEGERPIKPVRLLGEDLVLFKDETGRYGLIDRDCPHRGADLAFGRLENGGLRCAFHGWLFDVDGKCIDTPAEPAGSPLCKNIKQRAFPVVAKGGILWAYLGAGEPPAFPEIDCFIAPDTHVFAFKGLMECNWLQALEVGIDPAHASFLHRFFEDEDTSQAYGKQFRGASAGSDLPMTKVLREYDRPIINVEHTEYGLRLIALREIDDERTHVRVTNQLFPHGFVIPMSTEMTITQWHVPVDDTHCYWYAIFTSYAAPVDKVKMRDQRLELYELPNYKSRRNKTNDYGFDPHEQATATYTGMGLDINVHDQWAVESMGAIQDRTREHLGQSDKAIIQYRRLLRQEIEKAASGGKPLLALDEAAARAIQGPATMDGIGPSRGWETYWMEVDVKRRRGAPWAVPVPSEIAAKVPHLTAAE | not soluble
MAYCNPGLESRPNKRNALRRHVVTGIGMKIVIAPDSYKESLSASEVAQAIEKGFREIFPDAQYVSIPVADGGEGTVEAMIAATQGSERHAWVTGPLGEKVNASWGISGDGKTAFIEMAAASGLELVPAEKRDPLVTTSRGTGELILQALESGATNIIIGIGGSATNDGGAGMVQALGAKLCDANGNEIGFGGGSLNTLNDIDISGLDPRLKDCVIRVACDVTNPLVGDNGASRIFGPQKGASEAMIVELDNNLSHYADVIKKALHVDVKDVPGAGAAGGMGAALMAFLGAELKSGIEIVTTALNLEEHIHDCTLVITGEGRIDSQSIHGKVPIGVANVAKKYHKPVIGIAGSLTDDVGVVHQHGIDAVFSVLTSIGTLDEAFRGAYDNICRASRNIAATLAIGMRNTG | not soluble
RSIRLPETIDLGALYLSMKDTEKGIKELNLEKDKKIFNHCFTGNCVIDWLVSNQSVRNRQEGLMIASSLLNEGYLQPAGDMSKSAVDGTAENPFLDNPDAFYYFPDSGFFCEEN | soluble
MTQPSAPAPQIAIDSHDDKAWRDTLLKVAAILCERQPDSPQGYRLRRHALWQSITSTPQAESDGRTPLAAVSADMVADYQSRLASADMALWQQVEKSVLLAPYWLDGHCLSAQTALRLGYKQVADTIRDEVIRFLERLPQLTGLLFNDRTPFLSEQTKQWLAASPDGKVAPVAQIGEESQAARACFAGQGLEAALRYLDMLPEGDPRDQFHRQYLAAQLTEEAGLIQLAQQQYRMLLMIGSQMMVSDWEPSLLTQLEQKFTAEQ | soluble
MANYPKELPAQTQSRQPGIESEMNPSPVYEYEDYKGADKLKGKVALITGGDSGIGRAVSVAYAKEGADIAIVYKDEHEDAEETKKRVEQEGVKCLLIAGDVGEEEFCNEAVEKTVKELGGLDILVNNAGEQHPKESIKDITSEQLHRTFKTNFYSQFYLTKKAIDYLKPGSAIINTTSINPYVGNPTLIDYTATKGAINAFTRTMAQALVKDGIRVNAVAPGPIWTPLIPATFPEETVAQFGQDTPMGRPGQPVEHVGCYVLLASDESSYMTGQTLHVNGGNFVT | soluble
GSMAEGRGSRERPDVETQKTELGALMGTTLQRGAQWYLIDSRWFKQWKKYVGFDSWDMYNVGEHNLFPGPIDNSGLFSDPESQTLKEHLIDELDYVLVPAEAWNKLLNWYGCVEGQQPIVRKVVEHGLFVKHCKVEVYLLELKLCENSDPTNVLSCHFSKADTIATIEKEMRKLFNIPAERETRLWNKYMSNTYEQLSKLDNTIQDAGLYQGQVLVIEPQNEDGTWPRQSL | soluble
MGSDKIHHHHHHMSQTLEQVIQNAGDLVNFVRNQQVGPNVYPGVPAEYSNWRNEQWAWAHSAVLYNQSYHMVDLAVKGPDAFKMLEHLGINSFKNFQPDRAKQFVPVTPDGYVIGDVILFYLDENHFNLVGRAPTIEWVEYHAASGNWNVTVERDERWAMRTDGKRNSYRFQIQGPNAMKIIEKATGKTAPDLKFFHMTRMTIGGKEVRALRHGMAGQPGFELMGPWEDYGAVHAALVEAGKGFQMALVGGRAYSSNTLESGWIPSPFPAIYTGEALRPYREWLSANSYEAKCSVGGSYVPETIEGYYTTPWDLGYGPFVKFDHDFIGRAALEKMAAEGKHRTKVTLALDNEDVMRVQSSALSKGDRAKFMEYPSAVYSMHPFDQVLADGKMVGLSTWIGYTANEGKFLTLAMMEPGYVEPGTQVSLLWGEPNGGTTKPTVEPHVQTEIKATVAAVPYSEVARDSYAEGWRTKK | not soluble
